Test results taken from the supplement of paper PMC9112550, “Optimization of the antimicrobial peptide Bac7 by deep mutational scanning” (BMC Biology, 2022).

Test system: Escherichia coli TOP10
Assay: shrunken log2 fold change of peptide-encoding DNA abundance (4.5 h post-induction vs induction); higher = less antimicrobial activity (less host growth inhibition)
Settings: time post-induction: 4.5 h; library: site-saturation at positions 5, 18, 19, 20
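Also: peptides expressed intracellularly from a pBAD plasmid library in pooled LB shake-flask culture, induced with 0.3% L-arabinose, DNA abundance read by NGS, three biological replicates, DESeq2 with apeglm shrinkage.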

Sequence | shrunken log2 fold change
RRIRKRPPRLPRPRPRPTEWPRP | 0.0407
RRIRPRPPRLPRPRPRPEQCPRP | -0.0149
RRIRCRPPRLPRPRPRPDAFPRP | 0.467
RRIRPRPPRLPRPRPRPNEEPRP | -0.0581
RRIRDRPPRLPRPRPRPIRKPRP | 0.0201
RRIRGRPPRLPRPRPRPESCPRP | 1.33
RRIRGRPPRLPRPRPRPQTQPRP | 2.07
RRIRLRPPRLPRPRPRPNQTPRP | -0.0464
RRIRMRPPRLPRPRPRPTVQPRP | -0.0862
RRIRARPPRLPRPRPRPMMHPRP | 0.184
RRIRIRPPRLPRPRPRPNINPRP | -0.918
RRIRVRPPRLPRPRPRPMESPRP | 0.156
RRIRMRPPRLPRPRPRPMDVPRP | -0.0209
RRIRDRPPRLPRPRPRPCLAPRP | 0.291
RRIRSRPPRLPRPRPRPTTYPRP | -0.359
RRIRRRPPRLPRPRPRPIQHPRP | 0.0238
RRIRFRPPRLPRPRPRPSPNPRP | -0.399
RRIRARPPRLPRPRPRPAKGPRP | 0.342
RRIRGRPPRLPRPRPRPMHKPRP | 0.866
RRIRDRPPRLPRPRPRPMIHPRP | 0.318
RRIRRRPPRLPRPRPRPRGMPRP | 0.907
RRIRLRPPRLPRPRPRPQFQPRP | -0.0476

Sequence | shrunken log2 fold change
RRIRFRPPRLPRPRPRPYPAPRP | -0.512
RRIRYRPPRLPRPRPRPGHQPRP | 0.0299
RRIRSRPPRLPRPRPRPINIPRP | -0.589
RRIRGRPPRLPRPRPRPASEPRP | 1.13
RRIRVRPPRLPRPRPRPGKEPRP | -0.0126
RRIRDRPPRLPRPRPRPDPAPRP | 0.304
RRIRSRPPRLPRPRPRPSSTPRP | -0.397
RRIRMRPPRLPRPRPRPWYGPRP | -0.0162
RRIRDRPPRLPRPRPRPGFHPRP | 0.0294
RRIRLRPPRLPRPRPRPLAWPRP | 0.32
RRIRTRPPRLPRPRPRPQPTPRP | 0.197
RRIRQRPPRLPRPRPRPRVEPRP | -0.0308
RRIRCRPPRLPRPRPRPAIWPRP | 0.346
RRIRMRPPRLPRPRPRPVNMPRP | -0.292
RRIRKRPPRLPRPRPRPQHDPRP | 0.202
RRIRTRPPRLPRPRPRPNYSPRP | -0.382
RRIRMRPPRLPRPRPRPKHNPRP | 0.131
RRIRARPPRLPRPRPRPTREPRP | 0.573
RRIRLRPPRLPRPRPRPFHRPRP | -0.246
RRIRMRPPRLPRPRPRPSTIPRP | -0.23
RRIRERPPRLPRPRPRPTFVPRP | 0.0579
RRIRVRPPRLPRPRPRPVYHPRP | -0.544

Sequence | shrunken log2 fold change
RRIRGRPPRLPRPRPRPKGPPRP | 0.331
RRIRLRPPRLPRPRPRPEHLPRP | -0.118
RRIRERPPRLPRPRPRPEEWPRP | -0.0919
RRIRNRPPRLPRPRPRPDIMPRP | -0.039
RRIRNRPPRLPRPRPRPITPPRP | 0.119
RRIRRRPPRLPRPRPRPMFCPRP | 0.235
RRIRSRPPRLPRPRPRPYYNPRP | -0.906
RRIRERPPRLPRPRPRPPFHPRP | -0.139
RRIRWRPPRLPRPRPRPSNEPRP | 0.0555
RRIRYRPPRLPRPRPRPSTHPRP | 0.396
RRIRQRPPRLPRPRPRPGARPRP | 0.451
RRIRRRPPRLPRPRPRPAWLPRP | 0.505
RRIRMRPPRLPRPRPRPGTEPRP | 0.562
RRIRTRPPRLPRPRPRPIGHPRP | -0.111
RRIRDRPPRLPRPRPRPRRCPRP | 0.142
RRIRHRPPRLPRPRPRPFDCPRP | -0.186
RRIRQRPPRLPRPRPRPPRMPRP | 0.442
RRIRMRPPRLPRPRPRPASLPRP | -0.0145
RRIRKRPPRLPRPRPRPPIQPRP | 0.304
RRIRVRPPRLPRPRPRPERSPRP | 0.276
RRIRVRPPRLPRPRPRPSWCPRP | 0.123
RRIRQRPPRLPRPRPRPRNQPRP | -0.329

Sequence | shrunken log2 fold change
RRIRIRPPRLPRPRPRPLGNPRP | -0.19
RRIRQRPPRLPRPRPRPRCEPRP | -0.128
RRIRPRPPRLPRPRPRPIYEPRP | -0.0945
RRIRSRPPRLPRPRPRPLWWPRP | 0.35
RRIRWRPPRLPRPRPRPFHCPRP | -0.026
RRIRSRPPRLPRPRPRPQIDPRP | -0.0914
RRIRHRPPRLPRPRPRPLQGPRP | 0.00978
RRIRFRPPRLPRPRPRPGIYPRP | -0.184
RRIRPRPPRLPRPRPRPCRDPRP | 1.11
RRIRRRPPRLPRPRPRPAFKPRP | 0.291
RRIRSRPPRLPRPRPRPHHVPRP | -0.243
RRIRSRPPRLPRPRPRPYCRPRP | -0.512
RRIRRRPPRLPRPRPRPMVAPRP | 0.363
RRIRFRPPRLPRPRPRPSRNPRP | -0.346
RRIRQRPPRLPRPRPRPWARPRP | -0.0405
RRIRKRPPRLPRPRPRPSLIPRP | -0.0338
RRIRGRPPRLPRPRPRPSHSPRP | 0.0319
RRIRPRPPRLPRPRPRPGLMPRP | 0.184
RRIRDRPPRLPRPRPRPYCPPRP | -1.1
RRIRCRPPRLPRPRPRPQPKPRP | 0.273
RRIRCRPPRLPRPRPRPATDPRP | -0.112
RRIRTRPPRLPRPRPRPIKAPRP | -0.143

Sequence | shrunken log2 fold change
RRIRLRPPRLPRPRPRPDIFPRP | -0.282
RRIRPRPPRLPRPRPRPSYWPRP | -0.277
RRIRVRPPRLPRPRPRPHFQPRP | -0.154
RRIRSRPPRLPRPRPRPYCKPRP | -0.327
RRIRSRPPRLPRPRPRPPDLPRP | 0.543
RRIRQRPPRLPRPRPRPARVPRP | 0.109
RRIRGRPPRLPRPRPRPRCTPRP | 0.892
RRIRWRPPRLPRPRPRPWTMPRP | -0.146
RRIRLRPPRLPRPRPRPTPQPRP | 0.594
RRIRSRPPRLPRPRPRPAKWPRP | 0.235
RRIRERPPRLPRPRPRPKPDPRP | 0.0317
RRIRCRPPRLPRPRPRPVPFPRP | -0.132
RRIRLRPPRLPRPRPRPIRAPRP | 0.301
RRIRIRPPRLPRPRPRPCHAPRP | -0.618
RRIRLRPPRLPRPRPRPATTPRP | 0.467
RRIRMRPPRLPRPRPRPDSHPRP | -0.025
RRIRLRPPRLPRPRPRPACGPRP | 0.412
RRIRDRPPRLPRPRPRPSSEPRP | 0.186
RRIRLRPPRLPRPRPRPDMTPRP | -0.0167
RRIRVRPPRLPRPRPRPIPEPRP | -0.0974
RRIRLRPPRLPRPRPRPCCDPRP | -0.139
